# Reference: article PMC3509593, “Role of Key Residues at the Flavin Mononucleotide (FMN):Adenylyltransferase Catalytic Site of the Bifunctional Riboflavin Kinase/Flavin Adenine Dinucleotide (FAD) Synthetase from Corynebacterium ammoniagenes” (International Journal of Molecular Sciences, 2012)
# Like-named read-outs stand apart in the source and are kept apart here.
# B1: WT: wild-type FAD synthetase from Corynebacterium ammoniagenes (CaFADS), over-expressed in E. coli (protein)
# chain: MDIWYGTAAVPKDLDNSAVTIGVFDGVHRGHQKLINATVEKAREVGAKAIMVTFDPHPVSVFLPRRAPLGITTLAERFALAESFGIDGVLVIDFTRELSGTSPEKYVEFLLEDTLHASHVVVGANFTFGENAAGTADSLRQICQSRLTVDVIDLLDDEGVRISSTTVREFLSEGDVARANWALGRHFYVTGPVVRGAGRGGKELGFPTANQYFHDTVALPADGVYAGWLTILPTEAPVSGNMEPEVAYAAAISVGTNPTFGDEQRSVESFVLDRDADLYGHDVKVEFVDHVRAMEKFDSVEQLLEVMAKDVQKTRTLLAQDVQAHKMAPETYFLQAES
# Tests used:
# [1] = Thermal denaturation by differential scanning calorimetry (DSC); type: physicochemical; conditions: 20 mM PIPES, 10 mM MgCl2, pH 7.0
# Method: Thermal stability was determined with a VP-DSC microcalorimeter (MicroCal LLC, Northampton, MA, USA). Protein samples and reference solutions were degassed and carefully loaded into the cells to avoid bubble formation. The baseline of the instrument was routinely recorded before the experiments with both cells filled with buffer. […] Errors in the Tm,app data are within ±0.3–0.5 °C.
# CaFADS [2] = target: T1, CaFADS (Corynebacterium ammoniagenes, UniProt Q59263); set-up: method as in PMID 22892871; conditions: FMNAT activity; 37 °C, 20 mM PIPES, 10 mM MgCl2, pH 7.0; cited from earlier work
# T1 construct: made in house; host or cells: E. coli (pET28a-CaFADS plasmid)
# CaFADS [3] = conditions: FADpp activity; 37 °C, 20 mM PIPES, 10 mM MgCl2, pH 7.0
# Method: The CaFADS FMNAT and FADpp activities were fluorimetrically measured using a continuous assay. […] Measurements were performed in a Cary Eclipse spectrophotofluorimeter with excitation and emission wavelengths at 420 nm and 530 nm, respectively. FAD and FMN fluorescence were individually calibrated using standard solutions. The rate of FAD formation was calculated from the rate of fluorescence decrease (ΔF/Δt), measured as the tangent to the initial part of the experimental curve by applying the equation:
# where ΔF is the decrease in the value of the fluorescence expressed in arbitrary units, Δt is the measurement of reaction time expressed in per minute, and KFMN and KFAD are the FMN and FAD fluorescent rate constants expressed in per micromolar [37]. The kinetic data obtained for one substrate at saturated concentrations of the second one were interpreted using the Michaelis-Menten kinetic model.
# CaFADS [4] = conditions: 25 °C; for Kd: 20 mM PIPES pH 7.0
# Method: Measurements were carried out using a high precision VP-ITC (MicroCal LLC, Northampton, MA, USA) following the procedure described previously. Typically, 200 μM FAD or FMN and 300 μM ATP solutions were used to titrate ~20 μM CaFADS. Ligand and CaFADS were dissolved in 20 mM PIPES, pH 7.0, at the indicated MgCl2 concentration. Control titrations were performed by injecting ligand into buffer solution. The association constant, the enthalpy change (ΔH) and the stoichiometry, or their average values, were obtained through non-linear regression of the experimental data to a home derived model for one or two independent binding sites implemented in Origin 7.0 (OriginLab Corporation, Northampton, MA, 2002) (see Supplementary Material). The Kd, the free energy change (ΔG), and the entropy change (ΔS) were obtained from basic thermodynamic relationships. Experiments were performed in duplicate or triplicate.
# The association constant (Ka), the enthalpy change (ΔH) and the stoichiometry (N), or their average values, were obtained through non-linear regression of the experimental data to a model for one or two independent binding sites implemented in Origin 7.0 (OriginLab Corporation, Northampton, MA, USA, 2002).
# The nominal protein concentration was normalised by a factor n (nP0, instead of P0) accounting for either the stoichiometry or the fraction of active (binding-competent) protein.
# CaFADS [5] = target: T1, CaFADS; conditions: RFK activity, cited from earlier work
# [6] = ligand ATP, 10 mM Mg^2+, pH 7.0
# [7] = ligand FAD, 10 mM Mg^2+, pH 7.0
# [8] = ligand FMN, 10 mM Mg^2+, pH 7.0
molecule,measurement,setting,value
B1,"Tm,app",[1],42.5 °C
same,kcat,CaFADS [2],0.283 s⁻¹
same,kcat,CaFADS [3],0.217 s⁻¹
same,ΔG FADS:ATP,"CaFADS [4]; ligand ATP, 0 mM Mg^2+, pH 7.0",-7.2 kcal/mol
same,ΔH FADS:ATP,"CaFADS [4]; ligand ATP, 0 mM Mg^2+, pH 7.0",-31 kcal/mol
same,−TΔS FADS:ATP,"CaFADS [4]; ligand ATP, 0 mM Mg^2+, pH 7.0",24 kcal/mol
same,ΔG FADS:ATP,CaFADS [4]; [6],-6.2 kcal/mol
same,ΔH FADS:ATP,CaFADS [4]; [6],-30 kcal/mol
same,−TΔS FADS:ATP,CaFADS [4]; [6],23 kcal/mol
same,ΔG FADS:FAD,CaFADS [4]; [7],-8.4 kcal/mol
same,ΔH FADS:FAD,CaFADS [4]; [7],-26 kcal/mol
same,−TΔS FADS:FAD,CaFADS [4]; [7],18 kcal/mol
same,ΔG FADS:FMN,CaFADS [4]; [8],-7.0 kcal/mol
same,ΔH FADS:FMN,CaFADS [4]; [8],-35 kcal/mol
same,−TΔS FADS:FMN,CaFADS [4]; [8],28 kcal/mol
same,Kd,"CaFADS [4]; read-out: Kd FADS:ATP (average, Kd,av^ATP:Mg, for two ATP:Mg^2+ binding sites), ligand ATP, 10 mM Mg^2+",30 µM
same,Kd,"CaFADS [4]; read-out: Kd FADS:ATP, ligand ATP, 0 mM Mg^2+",5.5 µM
same,Kd,"CaFADS [4]; read-out: Kd FADS:FAD, ligand FAD, 10 mM Mg^2+",0.7 µM
same,Kd,"CaFADS [4]; read-out: Kd FADS:FMN, ligand FMN, 10 mM Mg^2+",7.8 µM
same,kcat (apparent),"CaFADS [5]; saturated ATP, varying RF, 37 °C, 0.8 mM MgCl2, pH 7.0",5.02 s⁻¹
same,kcat (apparent),"CaFADS [5]; varying ATP, RF concentration exhibiting ~80% maximal activity",1.13 s⁻¹
